Consider one molecule from patent US20220249640A1.

A word on the Kd: it is a measure of binding affinity in units of concentration. A low value points to tighter binding.

The assay addresses PD-1 (soluble, biotinylated, on sensors or coated on plates) (human) (UniProt Q15116). The assay is described as follows: method not stated at the list; Octet curves in FIG. 29. (BLI is a label-free optical method that tracks binding on a fibre tip over time.)

Sequence of PD-1 (soluble, biotinylated, on sensors or coated on plates) (human) (Q15116 25-167 limits assumed): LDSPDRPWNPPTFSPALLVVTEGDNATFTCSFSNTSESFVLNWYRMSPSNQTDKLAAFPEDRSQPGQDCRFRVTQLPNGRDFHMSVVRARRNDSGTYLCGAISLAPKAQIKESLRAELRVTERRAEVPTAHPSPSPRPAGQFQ

B1: PD1#3 scFv-Fc (Fc fusion, part only; not given: Fc, linker, domain order, not shown: another chain or arm of the molecule; a dimerising Fc or GST; small tags and cut ends)
VH: QVQLVQSGAEVKKPGSSVKVSCKTSGYTFNRFGLTWVRQAPGQGLEWMGWTNPYNGNTRYAQKFQGRVTMTTDTSTSTAYMELRSLRSDDTAMYFCARVVAVNGMDVWGQGTTVTVSS
VL: NFMLTQPHSVSESPGKTVTISCTRNSGSIAAYYVQWYQQRPGSSPTTVIYEDNQRPSGVPDRFSGSIDSSSNSASLTISGLKTEDEADYYCQSYDSSNLWVFGGGTKLTVL
On to B1, for which the equilibrium dissociation constant (Kd) worked out at 100 pM.
